Reference: EP2469278A1, “Reagentless fluorescent biosensors from nanofitins, rational design methods to create reagentless fluorescent biosensors and methods of their use” (Institut Pasteur, priority 2010, dated 2012)
Where “and” joins values, the source holds several entries; their conditions need not be identical. Equal values may be shown once.

Experiments:
hen egg-white lysozyme [1] = molecular target: T1, hen egg-white lysozyme (hen, UniProt P00698 19-147); assay: competition Biacore in solution, buffer D; free H4S measured on immobilised HEL
T1 construct: also called HEL

hen egg-white lysozyme [2] = molecular target: T1, hen egg-white lysozyme; assay: Biacore kinetics, HEL immobilised; Kd' = koff/kon
hen egg-white lysozyme [3] = molecular target: T1, hen egg-white lysozyme; assay: Biacore, HEL immobilised; Kd'' dissociation constant at steady state
hen egg-white lysozyme [4] = molecular target: T1, hen egg-white lysozyme; assay: Biacore kinetics, HEL immobilised on CM5 chip, buffer E (reducing), 25 °C, 1:1 Langmuir model
[5] = molecular target: T2, hen egg-white lysozyme (HEL) (Gallus gallus, UniProt P00698); assay: Selectivity: fluorescence signal of conjugate in mixtures of calf serum and buffer C; format: binding; conditions: 0.3 µM conjugate, 10 µM HEL
T2 construct: hen egg-white lysozyme (HEL); purchased Sigma
Method: (§1) The binding and fluorescence experiments were performed at equilibrium as if the preparations of conjugates were homogeneous, i. e. as if yc = 1. The binding reactions were conducted by incubating 0.3 µM of conjugate with variable concentrations of the HEL or BSA antigens in a volume of 1 mL, for 30 min in the dark with gentle shaking. The reactions were carried out in Buffer C or in a mixture v:(1-v) of calf serum and Buffer C as indicated in example 2.
The selectivity of a biosensor refers to the extent to which it can recognize a particular analyte in a complex mixture without interference from other components (Vessman et al., 2001). The selectivity of the H4S(K24ANBD) conjugate was characterized by comparing its fluorescence properties in serum and in buffer C. More specifically, the variations of the F0 and F10µM parameters were measured as functions of the concentration in serum (Figure 3). Given that Kd = 0.1 µM for H4S(K24ANBD), this conjugate was fully saturated with HEL at 10 µM. […] As expected, the absorbance of the serum alone increased linearly with its concentration, in agreement with the Beer-Lambert law, at both 485 nm and 536 nm, which were the wavelengths of fluorescence excitation and emission in our experiments. […] The same increase and decrease was observed when measuring the fluorescence of a conjugate between IANBD and 2-mercaptoethanol. […]

[6] = molecular target: bovine serum albumin (BSA) (Bos taurus, UniProt P02769); assay: Specificity: titration of H4S conjugates with heterologous antigen BSA, monitored by fluorescence; conditions: for ΔF∞/F0: BSA as antigen, buffer C, 0.3 µM conjugate; for relative sensitivities sr lower for BSA than for HEL: [B]0 = 0.3 µM
[7] = molecular target: T2, hen egg-white lysozyme (HEL); assay: Titration of H4S conjugates with HEL, monitored by fluorescence; format: binding; conditions: for sr: relative sensitivity of the conjugate at a fixed concentration of 0.3 µM (Equation 8), buffer C
Method: as §1
The conjugate (or biosensor) B and antigen A form a 1:1 complex B:A according to the reaction: B + A↔B:A [formula] At equilibrium, the concentration [B:A] of the complex is given by the equation: [B:A] = 0.5{[B]0+[A]0+Kd-(((([B]0+[A]0+Kd))^2-4[B]0[A]0))^(1/2)} [formula] where Kd is the dissociation constant, and [A]0 and [B]0 are the total concentrations of A and B, respectively (Renard et al., 2003).
The fluorescence of the IANBD conjugates was excited at 485 nm (5 nm slit width) and its intensity measured between 520 and 550 nm (20 nm slit width) with a FP-6300 spectrofluorometer (Jasco). The signal of HEL alone or BSA alone was measured in an independent experiment and subtracted from the global signal of the binding mixture to give the specific fluorescence intensity F of each conjugate. The intensity F at a given value of [A]0 satisfies the following equation: (F-F0)/F0 = ΔF/F0 = (ΔF∞/F0)([B:A]/[B]0) [formula] where F0 and F∞ are the values of F at zero and saturating concentrations of A (Renard et al., 2003). The values of ΔF∞/F0, Kd, and [B]0 could be determined by fitting Equation 5, in which [B:A] is given by Equation 4, to the experimental values of ΔF/F0, measured in a titration experiment. The fittings were performed with the Kaleidagraph software (Synergy Software).
The sensitivity s and relative sensitivity sr of a conjugate can be defined by the following equations for the low values of [A]0, i. e. in the initial part of the titration curve: ΔF = s[A]0 [formula] ΔF/F0 = sr [A]0 /[B]0 [formula] s and sr can be expressed as functions of characteristic parameters of the conjugate: sr = (ΔF∞/F0)([B]0/(Kd+[B]0)) [formula] s = fb sr [formula] where fb = F0/[B]0 is the molar fluorescence of the free conjugate (Renard and Bedouelle, 2004). Equation 8 implies that sr is maximal when the biosensor B is present at a concentration [B]0 >> Kd, as every newly titrated molecule A then forms a complex. Equation 6 implies that the lower limit of detection δ[A]0 of the conjugate is linked to the lower limit of measurement of the spectrofluorometer δF by the following equations: δ[A]0 = s^-1 δF = sr^-1 [B]0 (δF/F0) [formula]

bovine serum albumin = molecular target: T3, bovine serum albumin (bovine, UniProt P02769 25-607); assay: fluorescence titration with BSA, 0.3 µM conjugate, buffer C
T3 construct: Heterologous antigen used as specificity control; also called BSA

hen egg-white lysozyme [8] = molecular target: T1, hen egg-white lysozyme; assay: fluorescence titration in solution, 0.3 µM conjugate, buffer C, 25 °C
hen egg-white lysozyme [9] = molecular target: T1, hen egg-white lysozyme; assay: from Kd in solution: fluorescence titration of conjugate against competition Biacore of H4S(wt)
hen egg-white lysozyme [10] = molecular target: T1, hen egg-white lysozyme; assay: comparison of Kd in solution (fluorescence titration against competition Biacore)
hen egg-white lysozyme [11] = molecular target: T1, hen egg-white lysozyme; assay: fluorescence titration in solution, 0.3 µM conjugate, buffer C, 25 °C (fit R = 0.72)

B1: H4S(wt) (designed binder)
chain: MRGSHHHHHHGSVKVKFFWNGEEKEVDTSKIVWVKRAGKSVLFIYDDNGKNGYGDVTEKDAPKELLDMLARAEREKKLN
notes: Nanofitin derived from Sac7d (Sulfolobus acidocaldarius), H4 with Cys29 changed into Ser29; His-tagged; also called H4S protein; parental Nanofitin H4S(wt)
B1 was tested, and the Kd (hen egg-white lysozyme [1]) was 40.3 nM, the Kd (hen egg-white lysozyme [2]) was 31 nM and the Kd (hen egg-white lysozyme [3]) was 18 nM. The koff (hen egg-white lysozyme [4]) was 0.015 s⁻¹ and the kon (hen egg-white lysozyme [4]) was 490000 M⁻¹ s⁻¹.

B2: Lys24: H4S conjugate: residue Lys24 changed into cysteine and coupled with IANBD (SEQ ID NO: 61) (conjugate)
chain: MRGSHHHHHHGSVKVKFFWNGEEKEVDTSKIVWVCRAGKSVLFIYDDNGKNGYGDVTEKDAPKELLDMLARAEREKKLN
modifications: IANBD fluorophore on Cys24
B2 was tested, and the “(F10µM - F0)/F0” value ([5]; in ≤ 50 % serum) was no less than 0.25, the “concentration of serum in which the conjugate could still operate” value ([5]; serum (v/v) in buffer C) was no more than 50% and the “ΔF∞/F0” value [6] was 0.26± 0.01. For the same molecule, the “relative sensitivities sr lower for BSA than for HEL” value [6] was 106 fold, the Kd ([7]; HEL, rounded value quoted in text, read-out: Kd) was 100 nM and the “lower limit of detection δ[A]0” value ([7]; [B]0 = 0.3 µM, δF/F0 = […] (Equation 10)) was 0.35 nM. It also gave a sr ([7]; HEL) of 6.61 and a sr ([7]; HEL, listed as H4S(Lys24ANBD)) of 6.6.

B3: Ala26: H4S conjugate: residue Ala26 changed into cysteine and coupled with IANBD (SEQ ID NO: 62) (conjugate)
chain: MRGSHHHHHHGSVKVKFFWNGEEKEVDTSKIVWVKRCGKSVLFIYDDNGKNGYGDVTEKDAPKELLDMLARAEREKKLN
modifications: IANBD fluorophore on Cys26
In the case of B3, the “ΔF∞/F0” value [6] is reported as 0.73 ± 0.04, the “relative sensitivities sr lower for BSA than for HEL” value [6] is reported as 36 fold and the sr ([7]; HEL) is reported as 4.66.

B4: H4S cysteine mutant W8C (not conjugated) (designed binder)
chain: MRGSHHHHHHGSVKVKFFCNGEEKEVDTSKIVWVKRAGKSVLFIYDDNGKNGYGDVTEKDAPKELLDMLARAEREKKLN
notes: Free cysteine mutant, measured in reducing conditions
Work on B4 yielded a Kd (hen egg-white lysozyme [2]) of 68 nM, a Kd (hen egg-white lysozyme [3]) of 66 nM and a koff (hen egg-white lysozyme [4]) of 0.03 s⁻¹. For the same molecule, the kon (hen egg-white lysozyme [4]) was 450000 M⁻¹ s⁻¹.

B5: H4S cysteine mutant A26C (not conjugated) (designed binder)
chain: MRGSHHHHHHGSVKVKFFWNGEEKEVDTSKIVWVKRCGKSVLFIYDDNGKNGYGDVTEKDAPKELLDMLARAEREKKLN
notes: as for B4
Molecule B5 has a Kd (hen egg-white lysozyme [2]) of 60 nM, a Kd (hen egg-white lysozyme [3]) of 54 nM and a koff (hen egg-white lysozyme [4]) of 0.023 s⁻¹. It also gave a kon (hen egg-white lysozyme [4]) of 380000 M⁻¹ s⁻¹.

B6: H4S cysteine mutant V21C (not conjugated) (designed binder)
chain: MRGSHHHHHHGSVKVKFFWNGEEKEVDTSKICWVKRAGKSVLFIYDDNGKNGYGDVTEKDAPKELLDMLARAEREKKLN
notes: as for B4
With B6 the Kd (hen egg-white lysozyme [2]) was 332 nM, the Kd (hen egg-white lysozyme [3]) was 389 nM and the koff (hen egg-white lysozyme [4]) was 0.011 s⁻¹. For the same molecule, the kon (hen egg-white lysozyme [4]) was 40000 M⁻¹ s⁻¹.

B7: H4S cysteine mutant K39C (not conjugated) (designed binder)
chain: MRGSHHHHHHGSVKVKFFWNGEEKEVDTSKIVWVKRAGKSVLFIYDDNGCNGYGDVTEKDAPKELLDMLARAEREKKLN
notes: as for B4
In the case of B7, the Kd (hen egg-white lysozyme [2]) is reported as 38 nM, the Kd (hen egg-white lysozyme [3]) is reported as 24 nM and the koff (hen egg-white lysozyme [4]) is reported as 0.012 s⁻¹. The kon (hen egg-white lysozyme [4]) was 310000 M⁻¹ s⁻¹.

B8: H4S(A26ANBD) (designed binder)
chain: MRGSHHHHHHGSVKVKFFWNGEEKEVDTSKIVWVKRCGKSVLFIYDDNGKNGYGDVTEKDAPKELLDMLARAEREKKLN
modifications: Cys at position 26 (H4S numbering) coupled to IANBD ester (ANBD)
notes: also called Ala26
B8 was tested, and the Kd (bovine serum albumin) was 1400 nM, the Kd (hen egg-white lysozyme [8]) was 206 nM and the “ΔF∞/F0 (maximal relative variation of fluorescence on HEL binding)” value (hen egg-white lysozyme [8]) was 7.9. For the same molecule, the “ΔΔG (conjugate against H4S(wt))” value (hen egg-white lysozyme [9]) was ≥ 0.5 kcal/mol and ≤ 1.2 kcal/mol.

B9: H4S(K24C) (not conjugated) (designed binder)
chain: MRGSHHHHHHGSVKVKFFWNGEEKEVDTSKIVWVCRAGKSVLFIYDDNGKNGYGDVTEKDAPKELLDMLARAEREKKLN
notes: as for B4
For B9, the Kd (hen egg-white lysozyme [2]) was 117 nM, the Kd (hen egg-white lysozyme [3]) was 104 nM and the koff (hen egg-white lysozyme [4]) was 0.023 s⁻¹. The kon (hen egg-white lysozyme [4]) was 160000 M⁻¹ s⁻¹.

B10: H4S conjugate, IANBD fluorophore coupled at position Val21 (designed binder)
chain: MRGSHHHHHHGSVKVKFFWNGEEKEVDTSKICWVKRAGKSVLFIYDDNGKNGYGDVTEKDAPKELLDMLARAEREKKLN
modifications: Cys at position 21 (H4S numbering) coupled to IANBD ester (ANBD)
With B10 the Kd (hen egg-white lysozyme [8]) was 296 nM, the “ΔF∞/F0 (maximal relative variation of fluorescence on HEL binding)” value (hen egg-white lysozyme [8]) was 6.3 and the “ΔΔG (conjugate against H4S(wt))” value (hen egg-white lysozyme [9]) was ≥ 0.5 kcal/mol and ≤ 1.2 kcal/mol.

B11: H4S(K24ANBD) (designed binder)
chain: MRGSHHHHHHGSVKVKFFWNGEEKEVDTSKIVWVCRAGKSVLFIYDDNGKNGYGDVTEKDAPKELLDMLARAEREKKLN
modifications: Cys at position 24 (H4S numbering) coupled to IANBD ester (ANBD)
notes: also called H4S(Lys24ANBD); Lys24
B11 was tested, and the Kd (bovine serum albumin) was 1000 nM, the Kd (hen egg-white lysozyme [8]) was 98 nM and the “ΔF∞/F0 (maximal relative variation of fluorescence on HEL binding)” value (hen egg-white lysozyme [8]) was 8.8. The “fold lower affinity than the parental protein H4S(wt)” value (hen egg-white lysozyme [10]) was roughly 2 fold and the “ΔΔG (conjugate against H4S(wt))” value (hen egg-white lysozyme [9]) was ≥ 0.5 kcal/mol and ≤ 1.2 kcal/mol.

B12: H4S conjugate, IANBD fluorophore coupled at position Trp22 (designed binder)
chain: MRGSHHHHHHGSVKVKFFWNGEEKEVDTSKIVCVKRAGKSVLFIYDDNGKNGYGDVTEKDAPKELLDMLARAEREKKLN
modifications: Cys at position 22 (H4S numbering) coupled to IANBD ester (ANBD)
For B12, the Kd (hen egg-white lysozyme [11]) was 1230 nM and the “ΔΔG (conjugate against H4S(wt))” value (hen egg-white lysozyme [9]) was no less than 1.5 kcal/mol.
